Results on 78 sequences are retold here after the supplement of paper PMC10724198.

± gives the standard deviation of the averaged measurements.
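Further: PSI is a weighted mean of sequencing reads over stability bins, variants kept only with over 10 reads, mCherry proximal and sfGFP distal, peptide attached via GGGS linker.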

The data set relates to Saccharomyces cerevisiae. As to the kind of experiment: protein stability index of tFT-peptide fusion (C-terminal peptide) (PSI (0-1 scale)); higher = more stable (slower turnover). The conditions noted are these: genetic background: wild type; temperature: 30 C. As for the experimental part:
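Multiplexed protein stability (MPS) profiling in S. cerevisiae. Random 12-aa peptides (tFT-X12 library) are fused to the C-terminus of a sfGFP-mCherry tandem fluorescent timer, after mCherry and a GGGS linker. Cells are FACS-sorted into 8 mCherry/sfGFP bins and deep-sequenced. The protein stability index (PSI) is the read-weighted bin average, scaled from 0 (unstable) to 1 (stable). Only peptides with >10 reads are reported; cells were grown at 30 °C in SC-His with glucose.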
The sequence GGSGGLGEQGHR came in with a protein stability index of 0.76 ± 0.051. Next, GGSGHGAGAVWG: 0.6979 ± 0.0057; GGSGVHRHRPFG: 0.666 ± 0.055. Next, GGSIGTELAAVI: 0.682 ± 0.054. Under GGSRGGRWGLGE stands 0.746 ± 0.087; under GGSRRGLGAAGE, 0.671 ± 0.022.

The sequence GGTPIGAHVLLR came in with a protein stability index of 0.661 ± 0.00077. Under GGVCRARVAETV stands 0.674 ± 0.0074. Under GGVGGGGREWRR stands 0.683 ± 0.033. In turn, GGVGGRGREWRR yielded a protein stability index of 0.7 ± 0.028. Under GGVGGVRLVVSR stands 0.684 ± 0.064; under GGVGRGVGRGWG, 0.671 ± 0.03. Under GGVLGNGCGFGR stands 0.784 ± 0.065. Under GGVRAAGTGCGG stands 0.642 ± 0.031; under GGVSGESAVVSV, 0.649 ± 0.038. Regarding GGVSRLVGRLGG, the protein stability index was determined as 0.7055 ± 0.0017. Under GGVVCWACRWEL stands 0.671 ± 0.04. GGVVGWCAGKVV displayed a protein stability index of 0.642 ± 0.071.

The sequence GGVVSVYCEVSR yielded a protein stability index of 0.625 ± 0.016.

With GGWPWGGFLVDR, the protein stability index was 0.735 ± 0.012. The sequence GGWRGWAGENTR came in with a protein stability index of 0.699 ± 0.035. GGWRRDGSLCGA showed a protein stability index of 0.733 ± 0.14. Next, GGWSIVQKRRGG: 0.7215 ± 0.0034; GGWWVLCGGGWG: 0.567 ± 0.025. GGYGRAGRDVGG: the protein stability index stood at 0.655 ± 0.035. Next, GGYLLAGEGTFA: 0.702 ± 0.0094; GHEQIISIKGIK: 0.73 ± 0.049; GHVETQTRMASG: 0.789 ± 0.19. Next, GIGSHSSSNVNP: 0.791 ± 0.094. Under GIKKNKIKKKKI stands 0.624 ± 0.054; under GIKRKEKEKKNN, 0.615 ± 0.026; under GIMNDMPSLTAT, 0.6757 ± 0.0038. For GISASLRRMTRR, the protein stability index is 0.623 ± 0.017. Next, GISLTVTVRGWL: 0.496 ± 0.019; GIVFGMRKSDFK: 0.764 ± 0.1; GIYAWFSGWRKD: 0.72 ± 0.015.

The sequence GKAIIIFEQLRR registered a protein stability index of 0.749 ± 0.12. On to GKEGKGEAGIGE, for which the protein stability index is 0.686 ± 0.024.

The sequence GKEQIEKKIEGI gave a protein stability index of 0.589 ± 0.009. Under GKGGAEHADQVL stands 0.669 ± 0.099. Under GKGGITGWCCHH stands 0.648 ± 0.04; under GKHIAEMGNRKN, 0.716 ± 0.074.

Consider GKIGYQLGAVIN, for which the protein stability index was 0.709 ± 0.068. Under GKINPKMEIWIE stands 0.7011 ± 0.0049; under GKKTTQELGKTK, 0.803 ± 0.13. Next, GKKYDEAQLRKG: 0.709 ± 0.041; GKMLCADRSLEY: 0.701 ± 0.11; GKNIINSKITYK: 0.772 ± 0.043. Next, GKRKEKLEQTAQ: 0.688 ± 0.027. Sequence GKSGGTGAGEKR yielded a protein stability index of 0.661 ± 0.046. Next, GKTVRERWATRP: 0.651 ± 0.064. Next, GKYHIFNPNPKA: 0.685 ± 0.012; GLAELLLTKPTV: 0.652 ± 0.021. As for GLAGWCGGGWAL, the protein stability index was determined as 0.705 ± 0.026.

In the case of GLAPPRPYPPPA, the protein stability index stood at 0.728 ± 0.065.

Sequence GLCRVANGGTER showed a protein stability index of 0.695 ± 0.018. Under GLGGRAAQKCGQ stands 0.688 ± 0.016; under GLGQGVGWPWAV, 0.678 ± 0.024. Under GLGRRPGVGGVR stands 0.71 ± 0.0075; under GLGVPWVRWGWV, 0.632 ± 0.019; under GLGVVHGYFLVE, 0.59 ± 0.025. For GLKNECAIDGVL, the protein stability index is 0.623 ± 0.045. Next, GLLCWVGRWGVF: 0.596 ± 0.05; GLLGFVLSKDST: 0.719 ± 0.052; GLLPTPPASLLY: 0.6888 ± 0.00085. GLLRVGGFWSCL had a protein stability index of 0.747 ± 0.019.

Consider GLLSKVEFEEYQ, for which the protein stability index was found to be 0.655 ± 0.014. With GLLVAGGRNGDC, the protein stability index came out at 0.719 ± 0.054. Under GLLYHIRVRSRG stands 0.66 ± 0.006; under GLMITSARYVGF, 0.641 ± 0.012. Under GLNCGVCFGGGV stands 0.701 ± 0.025.

GLPHPPPHPFSL: the protein stability index is 0.763 ± 0.055. Under GLPSLHGTFRLS stands 0.69 ± 0.0077. GLQLTLINLPLE displayed a protein stability index of 0.749 ± 0.029. Next, GLSSVVWSGGLC: 0.6222 ± 0.0047; GLVAVRARGSRA: 0.663 ± 0.094; GLVGPKDRVSGL: 0.701 ± 0.018. Next, GLYSRPVNSNSF: 0.762 ± 0.022.
